Source: US20210032312A1 (Janssen / Centocor, published 2021)
Each block holds one binder with its values, some of them ahead of it.

Tests used:
[1] = biological target: T1, human CD8A-Fc (recombinant human CD8 alpha fused to Fc fragment of human IgG1) (human, UniProt P01732 22-182, limits assumed); test: SPR, dissociation rate on recombinant CD8 alpha
T1 construct: SPR ligand, captured by goat anti-human Fc; also called hCD8A-Fc; recombinant CD8 alpha; not shown: linker with flag (and polyhistidine) tag and Fc fragment of human IgG1; depends on which of the two constructs was used
T1 sequence (P01732 22-182 limits assumed): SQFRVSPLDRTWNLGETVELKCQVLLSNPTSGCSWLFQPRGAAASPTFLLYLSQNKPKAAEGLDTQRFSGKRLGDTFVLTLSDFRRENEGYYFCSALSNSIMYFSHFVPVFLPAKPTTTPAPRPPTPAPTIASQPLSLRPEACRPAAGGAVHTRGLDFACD

[2] = biological target: T2, human CD8A-Fc (in house) (human, UniProt P01732 22-182, limits assumed); test: SPR (ProteOn), captured hCD8A-Fc
T2 construct: captured by goat anti-human Fc on the ProteOn chip; also called hCD8A-Fc; recombinant human CD8 alpha; not shown: linker/tag and Fc of human IgG1
T2 sequence (P01732 22-182 limits assumed): as above

[3] = biological target: T3, cynomolgus monkey CD8 alpha on primary cynomolgus CD8+ T cells (cynomolgus monkey, UniProt P01732 23-235 (human entry)); test: flow cytometry, cyno CD8+ T cells
T3 construct: also called Cyno CD8alpha; cyno CD8A
T3 sequence (P01732 other isoform, or with tags, fused parts or gaps limits assumed): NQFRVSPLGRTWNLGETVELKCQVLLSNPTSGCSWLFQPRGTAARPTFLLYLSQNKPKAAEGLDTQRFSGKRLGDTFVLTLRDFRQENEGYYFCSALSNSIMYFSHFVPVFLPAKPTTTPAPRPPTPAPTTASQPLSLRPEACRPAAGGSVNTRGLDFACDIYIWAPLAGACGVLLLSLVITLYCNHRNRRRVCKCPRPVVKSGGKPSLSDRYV

[4] = biological target: T4, human CD8 alpha (CD8A) on primary human CD8+ T cells (human, UniProt P01732 22-235); test: flow cytometry, human CD8+ T cells
T4 construct: whole, on cells; also called hCD8A
T4 sequence (P01732 22-235): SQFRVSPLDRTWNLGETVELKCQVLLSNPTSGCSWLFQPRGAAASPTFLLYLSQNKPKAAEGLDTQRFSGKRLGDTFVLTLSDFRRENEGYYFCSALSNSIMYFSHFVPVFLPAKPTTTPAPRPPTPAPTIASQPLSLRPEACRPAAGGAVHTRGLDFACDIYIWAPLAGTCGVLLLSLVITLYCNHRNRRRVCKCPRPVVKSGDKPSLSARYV

koff [1]: 0.000152 s⁻¹
B1: CD8S396 (designed binder)
chain: LPAPKNLVVSRVTEDSARLSWTAPDAAFDSFYITYPEWPDPGGEAIVLTVPGSERSYDLTGLKPGTEYFVVIYGVKGGEIYSPLSAIFTT
notes: W32Y mutant of P282DR9P1359_C5; the entry holds the mutation

koff [1]: 0.00066 s⁻¹
B2: CD8S397 (designed binder)
chain: LPAPKNLVVSRVTEDSARLSWTAPDAAFDSFQITYPEWPDPGGEAIVLTVPGSERSYDLTGLKPGTEYFVVIYGVKGGEIYSPLSAIFTT
notes: W32Q mutant of P282DR9P1359_C5; the entry holds the mutation

koff [1]: 0.000443 s⁻¹
B3: CD8S398 (designed binder)
chain: LPAPKNLVVSRVTEDSARLSWTAPDAAFDSFSITYPEWPDPGGEAIVLTVPGSERSYDLTGLKPGTEYFVVIYGVKGGEIYSPLSAIFTT
notes: W32S mutant of P282DR9P1359_C5; the entry holds the mutation

koff [1]: 0.00134 s⁻¹
B4: CD8S399 (designed binder)
chain: LPAPKNLVVSRVTEDSARLSWTAPDAAFDSFWITYPEYPDPGGEAIVLTVPGSERSYDLTGLKPGTEYFVVIYGVKGGEIYSPLSAIFTT
notes: W38Y mutant of P282DR9P1359_C5; the entry holds the mutation

koff [1]: 0.0226 s⁻¹
B5: CD8S400 (designed binder)
chain: LPAPKNLVVSRVTEDSARLSWTAPDAAFDSFWITYPELPDPGGEAIVLTVPGSERSYDLTGLKPGTEYFVVIYGVKGGEIYSPLSAIFTT
notes: W38L mutant of P282DR9P1359_C5; the entry holds the mutation

koff [1]: 0.0127 s⁻¹
B6: CD8S401 (designed binder)
chain: LPAPKNLVVSRVTEDSARLSWTAPDAAFDSFWITYPEIPDPGGEAIVLTVPGSERSYDLTGLKPGTEYFVVIYGVKGGEIYSPLSAIFTT
notes: W38I mutant of P282DR9P1359_C5; the entry holds the mutation

koff [1]: 4.84e-05 s⁻¹
B7: CD8S402 (designed binder)
chain: LPAPKNLVVSRVTEDSARLSWTAPDAAFDSFWITYPEWPPPGGEAIVLTVPGSERSYDLTGLKPGTEYFVVIYGVKGGEIYSPLSAIFTT
notes: D40P mutant of P282DR9P1359_C5; the entry holds the mutation

koff [1]: 0.0309 s⁻¹
B8: CD8S404 (designed binder)
chain: LPAPKNLVVSRVTEDSARLSWTAPDAAFDSFWITYAEWPDPGGEAIVLTVPGSERSYDLTGLKPGTEYFVVIYGVKGGEIYSPLSAIFTT
notes: P36A mutant of P282DR9P1359_C5; the entry holds the mutation

koff [1]: 0.00189 s⁻¹
B19: CD8S395 (designed binder)
chain: LPAPKNLVVSRVTEDSARLSWTAPDAAFDSFAIAYPEHPPQGEAIVLTVPGSERSYDLTGLKPGTEYFVVIYGVKGGSYSAPLSAIFTT
notes: W38H mutant of P282DR9P1359_F7; the entry holds the mutation

koff [1]: 0.000133 s⁻¹
B20: CD8S403 (designed binder)
chain: LPAPKNLVVSRVTEDSARLSWTAPDAAFDSFAIAYAEWPPQGEAIVLTVPGSERSYDLTGLKPGTEYFVVIYGVKGGSYSAPLSAIFTT
notes: P36A mutant of P282DR9P1359_F7; the entry holds the mutation

Continued, binder first:

B9: CD8S371 (designed binder)
chain: LPAPKNLVVSRVTEDSARLSWTAPDAAFDSFQIAYPEYPPPGEAIVLTVPGSERSYDLTGLKPGTEYFVIIQGVKGGVESWPLSAIFTT
notes: Printed as W48Y mutant of P282DR9P1359_F5; the entry holds the mutation
koff [1]: 0.000194 s⁻¹

B10: CD8S372 (designed binder)
chain: LPAPKNLVVSRVTEDSARLSWTAPDAAFDSFQIAYPELPPPGEAIVLTVPGSERSYDLTGLKPGTEYFVIIQGVKGGVESWPLSAIFTT
notes: Printed as W48L mutant of P282DR9P1359_F5; the entry holds the mutation
koff [1]: 0.000571 s⁻¹

B11: CD8S373 (designed binder)
chain: LPAPKNLVVSRVTEDSARLSWTAPDAAFDSFQIAYPEIPPPGEAIVLTVPGSERSYDLTGLKPGTEYFVIIQGVKGGVESWPLSAIFTT
notes: Printed as W48I mutant of P282DR9P1359_F5; the entry holds the mutation
koff [1]: 0.00403 s⁻¹

B12: CD8S374 (designed binder)
chain: LPAPKNLVVSRVTEDSARLSWTAPDAAFDSFQIAYPEWPPPGEAIVLTVPGSERSYDLTGLKPGTEYFVIIQGVKGGVESYPLSAIFTT
notes: W81Y mutant of P282DR9P1359_F5; the entry holds the mutation
koff [1]: 0.000403 s⁻¹

B13: CD8S375 (designed binder)
chain: LPAPKNLVVSRVTEDSARLSWTAPDAAFDSFQIAYPEWPPPGEAIVLTVPGSERSYDLTGLKPGTEYFVIIQGVKGGVESLPLSAIFTT
notes: W81L mutant of P282DR9P1359_F5; the entry holds the mutation
koff [1]: 0.00083 s⁻¹

B14: CD8S376 (designed binder)
chain: LPAPKNLVVSRVTEDSARLSWTAPDAAFDSFQIAYPEWPPPGEAIVLTVPGSERSYDLTGLKPGTEYFVIIQGVKGGVESSPLSAIFTT
notes: W81S mutant of P282DR9P1359_F5; the entry holds the mutation
koff [1]: 0.000846 s⁻¹

B15: CD8S377 (designed binder)
chain: LPAPKNLVVSRVTEDSARLSWTAPDAAFDSFQIAYPEWPPPGEAIVLTVPGSERSYDLTGLKPGTEYFVIIQGVKGGVESEPLSAIFTT
notes: W81E mutant of P282DR9P1359_F5; the entry holds the mutation
koff [1]: 0.0004 s⁻¹

B16: CD8S392 (designed binder)
chain: LPAPKNLVVSRVTEDSARLSWTAPDAAFDSFAIAYPEYPPQGEAIVLTVPGSERSYDLTGLKPGTEYFVVIYGVKGGSYSAPLSAIFTT
notes: W38Y mutant of P282DR9P1359_F7; the entry holds the mutation
koff [1]: 0.00155 s⁻¹

B17: CD8S393 (designed binder)
chain: LPAPKNLVVSRVTEDSARLSWTAPDAAFDSFAIAYPELPPQGEAIVLTVPGSERSYDLTGLKPGTEYFVVIYGVKGGSYSAPLSAIFTT
notes: W38L mutant of P282DR9P1359_F7; the entry holds the mutation
koff [1]: 0.00255 s⁻¹

B18: CD8S394 (designed binder)
chain: LPAPKNLVVSRVTEDSARLSWTAPDAAFDSFAIAYPEIPPQGEAIVLTVPGSERSYDLTGLKPGTEYFVVIYGVKGGSYSAPLSAIFTT
notes: W38I mutant of P282DR9P1359_F7; the entry holds the mutation
koff [1]: 0.00355 s⁻¹

B21: CD8S378 (designed binder)
chain: LPAPKNLVVSRVTEDSARLSWTAPDAAFDSFAITYIEKEHIEEGEAIVLTVPGSERSYDLTGLKPGTEYWVPIWGVKGGANSWPLSAIFTT
notes: D43E mutant of P282DR9P1359_G7; the entry holds the mutation
koff [1]: 5.8e-05 s⁻¹

B22: CD8S379 (designed binder)
chain: LPAPKNLVVSRVTEDSARLSWTAPDAAFDSFAITYIEKEHIESGEAIVLTVPGSERSYDLTGLKPGTEYWVPIWGVKGGANSWPLSAIFTT
notes: D43S mutant of P282DR9P1359_G7; the entry holds the mutation
koff [1]: 4.97e-05 s⁻¹

B23: CD8S380 (designed binder)
chain: LPAPKNLVVSRVTEDSARLSWTAPDAAFDSFAITYIEKEHIEDGEAIVLTVPGSERSYDLTGLKPGTEYYVPIWGVKGGANSWPLSAIFTT
notes: W70Y mutant of P282DR9P1359_G7; the entry holds the mutation
koff [1]: 0.00121 s⁻¹

B24: CD8S381 (designed binder)
chain: LPAPKNLVVSRVTEDSARLSWTAPDAAFDSFAITYIEKEHIEDGEAIVLTVPGSERSYDLTGLKPGTEYFVPIWGVKGGANSWPLSAIFTT
notes: W70F mutant of P282DR9P1359_G7; the entry holds the mutation
koff [1]: 0.0002 s⁻¹

B25: CD8S382 (designed binder)
chain: LPAPKNLVVSRVTEDSARLSWTAPDAAFDSFAITYIEKEHIEDGEAIVLTVPGSERSYDLTGLKPGTEYSVPIWGVKGGANSWPLSAIFTT
notes: W70S mutant of P282DR9P1359_G7; the entry holds the mutation
koff [1]: 0.247 s⁻¹

B26: P283BR9P1363_F4 (designed binder)
chain: LPAPKNLVVSRVTEDSARLSWERIVQTPHFDSFLIQYQESEKVGEAIVLTVPGSERSYDLTGLKPGTEYTVSIYGVDVKWEGNRPVASNPLSAIFTT
notes: FN3 domain
koff [2]: 0.000155 s⁻¹
Cyno T-cell Binding 0.2 uM (MFI) [3]: 4480 MFI
Cyno T-cell Binding 2 uM (MFI) [3]: 20200 MFI
Human T-cell Binding 0.2 uM (MFI) [4]: 2960 MFI
Human T-cell Binding 2 uM (MFI) [4]: 11900 MFI

B27: P283BR9P1363_G2 (designed binder)
chain: LPAPKNLVVSRVTEDSARLSWPKNQTNRHFDSFLIQYQESEKVGEAIVLTVPGSERSYDLTGLKPGTEYTVSIYGVDVKWEGNRPVASNPLSAIFTT
notes: FN3 domain
koff [2]: 0.000122 s⁻¹
Cyno T-cell Binding 0.2 uM (MFI) [3]: 5380 MFI
Cyno T-cell Binding 2 uM (MFI) [3]: 15900 MFI
Human T-cell Binding 0.2 uM (MFI) [4]: 3230 MFI
Human T-cell Binding 2 uM (MFI) [4]: 9640 MFI

B28: P283BR9P1363_F2 (designed binder)
chain: LPAPKNLVVSRVTEDSARLSWYRPDNRAGAFDSFLIQYQESEKVGEAIVLTVPGSERSYDLTGLKPGTEYTVSIYGVDVKYDIDSRPISSNPLSAIFTT
notes: FN3 domain
koff [2]: 0.000288 s⁻¹
Cyno T-cell Binding 0.2 uM (MFI) [3]: 5280 MFI
Cyno T-cell Binding 2 uM (MFI) [3]: 33300 MFI
Human T-cell Binding 0.2 uM (MFI) [4]: 3270 MFI
Human T-cell Binding 2 uM (MFI) [4]: 14500 MFI

B29: P283BR9P1363_F6 (designed binder)
chain: LPAPKNLVVSRVTEDSARLSWPEEAVTATSFDSFLIQYQESEKVGEAIVLTVPGSERSYDLTGLKPGTEYTVSIYGVDVKWEGNRPVASNPLSAIFTT
notes: FN3 domain
koff [2]: 8.21e-05 s⁻¹
Cyno T-cell Binding 0.2 uM (MFI) [3]: 4570 MFI
Cyno T-cell Binding 2 uM (MFI) [3]: 31600 MFI
Human T-cell Binding 0.2 uM (MFI) [4]: 3230 MFI
Human T-cell Binding 2 uM (MFI) [4]: 10600 MFI

B30: P283BR9P1363_G5 (designed binder)
chain: LPAPKNLVVSRVTEDSARLSWYRATTPAPHFDSFLIQYQESEKVGEAIVLTVPGSERSYDLTGLKPGTEYTVSIYGVDVKWEGNRPVASNPLSAIFTT
notes: FN3 domain
koff [2]: 0.00014 s⁻¹
Cyno T-cell Binding 0.2 uM (MFI) [3]: 4430 MFI
Cyno T-cell Binding 2 uM (MFI) [3]: 24900 MFI
Human T-cell Binding 0.2 uM (MFI) [4]: 3310 MFI
Human T-cell Binding 2 uM (MFI) [4]: 14800 MFI

B31: P283DR9P1364_F6 (designed binder)
chain: LPAPKNLVVSRVTEDSARLSWTAPDAAFDSFTIAYPEREQDKWGEAIVLTVPGSERSYDLTGLKPGTEYWVIIQGVKGGRPSTPLSAILTT
notes: FN3 domain
koff [2]: 0.001 s⁻¹
Cyno T-cell Binding 0.2 uM (MFI) [3]: 3160 MFI
Cyno T-cell Binding 2 uM (MFI) [3]: 33800 MFI
Human T-cell Binding 0.2 uM (MFI) [4]: 1830 MFI
Human T-cell Binding 2 uM (MFI) [4]: 17200 MFI

B32: P283DR9P1364_F8 (designed binder)
chain: LPAPKNLVVSRVTEDSARLSWTAPDAAFDSFAIAYPEWPPGEAIVLTVPGSERSYDLTGLKPGTEYFVIIYGVKGGWTSPPLSAIFTT
notes: FN3 domain
koff [2]: 0.00174 s⁻¹
Cyno T-cell Binding 0.2 uM (MFI) [3]: 1300 MFI
Cyno T-cell Binding 2 uM (MFI) [3]: 36700 MFI
Human T-cell Binding 0.2 uM (MFI) [4]: 458 MFI
Human T-cell Binding 2 uM (MFI) [4]: 6300 MFI

B33: P283DR9P1364_H9 (designed binder)
chain: LPAPKNLVVSRVTEDSARLSWTAPDAAFDSFSISYIEYPEIPGGEAIVLTVPGSERSYDLTGLKPGTEYWVPIWGVKGGIQSWPLSAIFTT
notes: FN3 domain
koff [2]: 0.000271 s⁻¹
Cyno T-cell Binding 0.2 uM (MFI) [3]: 4560 MFI
Cyno T-cell Binding 2 uM (MFI) [3]: 54600 MFI
Human T-cell Binding 0.2 uM (MFI) [4]: 4060 MFI
Human T-cell Binding 2 uM (MFI) [4]: 32800 MFI
